# The supplement of paper PMC10724198
# ± gives the standard deviation of the averaged measurements.
# Test system: Saccharomyces cerevisiae
# Assay: protein stability index of tFT-peptide fusion (C-terminal peptide) (PSI (0-1 scale)); higher = more stable (slower turnover)
# Conditions: genetic background: wild type; temperature: 30 C
# 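Further: PSI is a weighted mean of sequencing reads over stability bins, variants kept only with over 10 reads, mCherry proximal and sfGFP distal, peptide attached via GGGS linker.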
row,Sequence,protein stability index
1,TIPPSTRAITPV,0.652 ± 0.046
2,SPPPPSPRFPSP,0.678 ± 0.017
3,SVCFPPCSSLPP,0.71 ± 0.19
4,NKKRKYRKNKRG,0.6096 ± 0.0051
5,LAPSPPPPPLPL,0.677 ± 0.01
6,RERRFFPPSGFS,0.71 ± 0.018
7,RCTRQVHPLTFR,0.66 ± 0.038
8,GIGCMVYKGGFQ,0.6977 ± 0.0011
9,VLHGGKLFGFVR,0.676 ± 0.017
10,KAKCRNRQDEVI,0.742 ± 0.026
11,HVLCRAFLFLLP,0.642 ± 0.016
12,VSVGRSSARVIG,0.725 ± 0.02
13,YLSPSTPLPVVL,0.64 ± 0.1
14,RFWIVVRRQTRT,0.6447 ± 0.00089
15,VLVFPVVYWILR,0.543 ± 0.038
16,SPPPPTPLPPPP,0.6757 ± 0.0047
17,TAKVYEKEGGEE,0.671 ± 0.019
18,PPLPPRPTPPPR,0.711 ± 0.04
19,LSARSSFIFSYY,0.645 ± 0.017
20,LLPPPPTPDPGP,0.645 ± 0.0067
21,SQFGLGCCQRST,0.723 ± 0.069
22,SSRSMKKKKVKI,0.7034 ± 0.0027
23,LFHHLAPRPAPP,0.698 ± 0.051
24,GGGTLGQWCCDV,0.6835 ± 0.0029
25,AGLGWGARQGAL,0.67 ± 0.019
26,TTQPQVGHHRTS,0.715 ± 0.021

row,Sequence,protein stability index
1,AGRGRHPRSTWR,0.688 ± 0.053
2,GRGEKKKGAKKI,0.728 ± 0.028
3,RGGGGGVWGHVV,0.58 ± 0.02
4,SWALELARPGEG,0.718 ± 0.013
5,VRGRGVYRIDKV,0.716 ± 0.018
6,RFPSLCVPFLFP,0.678 ± 0.013
7,PARASLRCLCRN,0.662 ± 0.055
8,VTCRALTFSLLG,0.635 ± 0.12
9,VIYIEYIGRNFI,0.631 ± 0.027
10,HVDSLPRPLLPS,0.716 ± 0.056
11,VVLRRTLGAFLF,0.661 ± 0.059
12,FRPLWLPSGSAC,0.611 ± 0.019
13,SYGPSGEFSFSF,0.702 ± 0.0075
14,YGAVRFTLIPLQ,0.639 ± 0.024
15,SPPPPASPPAPP,0.648 ± 0.062
16,SGGCGWGAGVRV,0.778 ± 0.02
17,YTSTPTLYTRLW,0.689 ± 0.014
18,RHPLPHNLSPYP,0.78 ± 0.0065
19,PRSPPLTHVSLH,0.697 ± 0.043
20,PPPHPPRRLLPP,0.69 ± 0.065
21,PLPPSPLPRPCP,0.761 ± 0.054
22,LPPSTSPPIRPP,0.663 ± 0.043
23,GGWWGGLGCFMV,0.699 ± 0.034
24,YSLIPLSSISQH,0.685 ± 0.074
25,PVSPRLLLRFTL,0.691 ± 0.14
26,RACALLIVGAGG,0.527 ± 0.0085

row,Sequence,protein stability index
1,NRKGNKGEKNTK,0.676 ± 0.048
2,PPPPPPLLPSPL,0.705 ± 0.069
3,PPPPRAISPLLP,0.666 ± 0.031
4,LLLDRGISLLLL,0.607 ± 0.026
5,KQRTMNKVSKEK,0.683 ± 0.045
6,LLCLKIGASWSK,0.674 ± 0.028
7,FFPFFLSFSPPF,0.708 ± 0.023
8,PSTLPLRLPRMF,0.644 ± 0.057
9,YKGKFTILESLK,0.665 ± 0.027
10,PLPCSSLLVPLP,0.627 ± 0.058
11,VDSYTGGFDLSW,0.681 ± 0.062
12,GCASAAMFPEEL,0.691 ± 0.053
13,FLPPYSLPTPPF,0.699 ± 0.03
14,NNQKTKLNEKNC,0.647 ± 0.048
15,GCWGAGESTLGG,0.724 ± 0.0084
16,RFFAVSLGGLEF,0.687 ± 0.031
17,RTFKYERNLEVY,0.596 ± 0.046
18,IRREETKRKRNL,0.755 ± 0.044
19,RSLSPPPASPIP,0.6755 ± 0.0051
20,PCPRPTPLPPFP,0.701 ± 0.055
21,ELGVGVLDRGCL,0.608 ± 0.22
22,PPHRPPTRPRPR,0.64 ± 0.0094
23,AECMLGLFSGVL,0.73 ± 0.033
24,RSGCGYCLVRLG,0.541 ± 0.0007
25,PTLSPRSPRFAS,0.755 ± 0.035
26,VSLPMAPPPLDG,0.616 ± 0.013

row,Sequence,protein stability index
1,GFRVRCSICGSA,0.681 ± 0.073
2,LGSGSTQGWAGG,0.667 ± 0.035
3,LYSAHLAPGNAD,0.656 ± 0.039
4,PPPASRPPHPTL,0.746 ± 0.026
5,SVLALKGFCWLG,0.562 ± 0.042
6,PFLLSPCSLSAS,0.665 ± 0.026
7,LMHDIRLCSSVV,0.702 ± 0.074
8,SDVAGRCFFVVI,0.589 ± 0.033
9,RRSCSMQISSRN,0.642 ± 0.045
10,PPPRPDLTVGQP,0.654 ± 0.04
11,PPPPPPPPAPFP,0.687 ± 0.056
12,PPSPDPPPPDLS,0.649 ± 0.017
13,GVGVWWRGVIMG,0.615 ± 0.0095
14,TYTELSFKNCVE,0.713 ± 0.042
15,QTQTAKEWAYHP,0.686 ± 0.015
16,PPTPTPPHPPPP,0.611 ± 0.015
17,QEQITKETDLTH,0.663 ± 0.013
18,PRSPPPPSPPPY,0.583 ± 0.02
19,FLFCSYHSPLSF,0.7 ± 0.036
20,ALSELSIDISHI,0.632 ± 0.067
21,CGLRGAGCLARD,0.637 ± 0.019
22,RGPLNPNWPPTD,0.7 ± 0.037
23,GGRVPRCRTVLL,0.681 ± 0.033
24,LCAGASYTMTVP,0.694 ± 0.021
25,SPISATISPSFR,0.728 ± 0.018
26,LPIPCPSPPPPR,0.708 ± 0.052

row,Sequence,protein stability index
1,RVSLGHGRAFWP,0.711 ± 0.083
2,SVAWPRLLSISP,0.612 ± 0.0089
3,IRKDRGYETGKR,0.6746 ± 0.0043
4,GRGERDIGVNQS,0.6792 ± 0.0031
5,RSSYTLLLPPLR,0.624 ± 0.0074
6,SSPLPLPLHPPP,0.7146 ± 0.0062
7,SSFFTTGAPRPP,0.674 ± 0.061
8,VVHATITGPVRS,0.635 ± 0.019
9,TPLPLRFRCPYS,0.639 ± 0.04
10,RRPRIANIETDY,0.678 ± 0.0046
11,LLPPPPLPPPRP,0.67 ± 0.032
12,GEKKKAILGKRK,0.62 ± 0.011
13,WCFVPLSFRLDS,0.71 ± 0.025
14,LGRSRYADVQFC,0.77 ± 0.021
15,HPLPPPPRSPPS,0.732 ± 0.011
16,PFPPPPTPTLSP,0.755 ± 0.027
17,SRGLVRGPMSGR,0.661 ± 0.053
18,PSPHRFPAPTLP,0.687 ± 0.039
19,SVFSPSTALLYP,0.697 ± 0.02
20,ILSASARPPRPA,0.701 ± 0.011
21,FFPRVLRLRYPS,0.754 ± 0.085
22,TPHPPAAPPPPL,0.766 ± 0.082
23,VVSQSPTLGSNY,0.655 ± 0.022
24,CLCITGIPVQGF,0.653 ± 0.064
25,FSPGYPMAFSLR,0.74 ± 0.0075
26,FAVLGGGGGGGW,0.711 ± 0.0097

row,Sequence,protein stability index
1,GWNRVGDWGVCG,0.736 ± 0.01
2,PSLPPDLPPPPA,0.744 ± 0.011
3,SDKKGQKLKESQ,0.693 ± 0.044
4,LPPTAPAPPSPP,0.716 ± 0.086
5,RNLRCDIVNVYP,0.759 ± 0.015
6,HNFYKLNLDHLK,0.649 ± 0.061
7,PYCVTLTLPFSS,0.7134 ± 0.0047
8,RPGLCLTFFSAH,0.666 ± 0.032
9,IKKRTSNRENKD,0.7 ± 0.025
10,SPPPPVPSAGPL,0.7 ± 0.042
11,PRAPHATGYNRR,0.7016 ± 0.0069
12,PMRAALIIFLVR,0.5 ± 0.1
13,RPFLLWRVVTPL,0.611 ± 0.016
14,GGRSGVSGVVAG,0.7021 ± 0.0049
15,GVPVGVDSFHGV,0.66848 ± 4.1e-05
16,QGKPSKWRSGSI,0.646 ± 0.048
17,CFFFFIFSLFGL,0.515 ± 0.02
18,RPKVSRIKENKY,0.727 ± 0.02
19,VWSWGDGGGAVV,0.734 ± 0.029
20,PPPLPYKAPRIL,0.7068 ± 0.0036
21,VGWGGGVEEVKG,0.712 ± 0.017
22,QGCAWWGGGAGG,0.684 ± 0.038
23,PPPQPPPRHSPP,0.676 ± 0.031
24,PRNTPPRRAPTR,0.6485 ± 0.0031
25,FTISHWFSGDGE,0.705 ± 0.015
26,RYNRVVCTEFHL,0.668 ± 0.01

row,Sequence,protein stability index
1,DAPEKQDKHINE,0.719 ± 0.088
2,SSLSFAPAPPFV,0.698 ± 0.035
3,SLQTRANTGLWT,0.689 ± 0.034
4,VDHWVCWCGGWG,0.7734 ± 0.0072
5,CRVSIVPIKRYS,0.578 ± 0.099
6,LPLQYPPSLLRL,0.6655 ± 0.0065
7,VRVVPPQPELSP,0.648 ± 0.051
8,SSVNRPTSWTKA,0.739 ± 0.024
9,PWRPTNPADRSV,0.61 ± 0.1
10,WLFFVCEDAGGC,0.68 ± 0.021
11,SPPFLPVPASSL,0.709 ± 0.027
12,GRNMQVTVQNRG,0.735 ± 0.02
13,KYGTPFPPEVEM,0.718 ± 0.034
14,KGEGRERSRSRK,0.768 ± 0.034
15,GRLSQWVPNGRA,0.681 ± 0.076
16,WGRIVRDFHCGG,0.614 ± 0.0083
17,EKKTNEKNSYNL,0.659 ± 0.016
18,GWGGGGGGGAGG,0.665 ± 0.057
19,YRYGVSWFDWRI,0.784 ± 0.058
20,LPPPPSFTSPHL,0.743 ± 0.12
21,SRGVSRGGGEVF,0.651 ± 0.027
22,ARPLPPSLPPPP,0.7356 ± 0.0046
23,FPASPQAPPPLP,0.65377 ± 0.00019
24,ADSVVAGKGASV,0.686 ± 0.031
25,EIGWEGLEGRGG,0.756 ± 0.11
26,ELFGSGERRVVV,0.68 ± 0.014

row,Sequence,protein stability index
1,LRAPFGWVKRFL,0.663 ± 0.069
2,GGRPVGRRRPGA,0.671 ± 0.031
3,RLCFAPRVLPTH,0.604 ± 0.041
4,GGCEGIRAVGWV,0.716 ± 0.04
5,VVREAKGHGGCR,0.667 ± 0.014
6,PPLARPPLPAPF,0.6998 ± 0.0022
7,EQSWEVWGRGQG,0.744 ± 0.022
8,QPNDIEIYTLLT,0.652 ± 0.05
9,CIFSMLLPPFSL,0.687 ± 0.0091
10,DTWRADKRGMKV,0.662 ± 0.052
11,EMGGLKACRGGG,0.553 ± 0.026
12,SVGLQLAFSAAV,0.728 ± 0.061
13,VVREARTLNGDM,0.671 ± 0.099
14,VPGRSPTKSTVS,0.66808 ± 0.00013
15,SRFSRLHPAFPV,0.759 ± 0.014
16,RVVEPKWDWRRG,0.68 ± 0.032
17,ELRCEMEFWCER,0.594 ± 0.0066
18,SCVLSYVASYAQ,0.66 ± 0.018
19,LPPRPTPPPPPP,0.71 ± 0.056
20,QKKELQKQKIAK,0.683 ± 0.015
